Data: PMC6078968, “Structural insights into the gating of DNA passage by the topoisomerase II DNA-gate” (Nature Communications, 2018)

Tests used:
[1] = molecular target: T1, hTop2βcore (DNA-binding and cleavage core of human topoisomerase 2β) (human, UniProt Q02880-2 445-1201); assay: X-ray crystallography (2.75 Å); open DNA-gate cleavage complex; Mn2+ (2 mM MnCl2), Mg acetate; etoposide or doxorubicin in crystallization mix, refined as binary complex; Crystallization: 5 mg/mL (~28 uM) protein, ~34 uM duplex, 2 mM etoposide or doxorubicin, 30 mM Tris-HCl pH 7.0, 70 mM NaCl, 2 mM MnCl2 (MgCl2 for P21), 1 mM EDTA, 2 mM β-mercaptoethanol; reservoir 100 mM Mg acetate, 50 mM MES pH 5.8 (5.6 for P21), …; conditions: protein: recombinant; chain copies: 2; blunt; self-complementary, 2 copies of S1; cleaved with 4-nt stagger in the complex
[2] = molecular target: the molecule itself; assay: crystal structure; open DNA-gate form of the hTop2β^core-DNA cleavage complex, space group P3_(2)21, one subunit in the asymmetric unit, homodimer built by the crystallographic twofold axis; 2.75 Å (5ZEN) and 3.87 Å with iodine-labelled DNA (5ZQF); MnCl2 in the sample buffer, reservoir pH 5.8, 4 °C
[3] = molecular target: T1, hTop2βcore (DNA-binding and cleavage …); assay: X-ray crystallography (3.87 Å); open DNA-gate cleavage complex; Mn2+ (2 mM MnCl2), Mg acetate; etoposide or doxorubicin in crystallization mix, refined as binary complex; Crystallization: 5 mg/mL (~28 uM) protein, ~34 uM duplex, 2 mM etoposide or doxorubicin, 30 mM Tris-HCl pH 7.0, 70 mM NaCl, 2 mM MnCl2 (MgCl2 for P21), 1 mM EDTA, 2 mM β-mercaptoethanol; reservoir 100 mM Mg acetate, 50 mM MES pH 5.8 (5.6 for P21), …; conditions: protein: recombinant; chain copies: 2; blunt; self-complementary, 2 copies; cleaved with 4-nt stagger in the complex

B1: 20-bp G-segment duplex (native) (dsDNA)
DNA 1: AGCCGAGCTGCAGCTCGGCT
DNA 2: AGCCGAGCTGCAGCTCGGCT
binding result [1]: binds

B2: DNA-binding and cleavage core of human topoisomerase 2β (hTop2β^core), in the covalent cleavage complex with a 20-bp duplex DNA (domain or fragment, UniProt Q02880-2 445-1201, looked up)
chain: SVKYSKIKGIPKLDDANDAGGKHSLECTLILTEGDSAKSLAVSGLGVIGRDRYGVFPLRGKILNVREASHKQIMENAEINNIIKIVGLQYKKSYDDAESLKTLRYGKIMIMTDQDQDGSHIKGLLINFIHHNWPSLLKHGFLEEFITPIVKASKNKQELSFYSIPEFDEWKKHIENQKAWKIKYYKGLGTSTAKEAKEYFADMERHRILFRYAGPEDDAAITLAFSKKKIDDRKEWLTNFMEDRRQRRLHGLPEQFLYGTATKHLTYNDFINKELILFSNSDNERSIPSLVDGFKPGQRKVLFTCFKRNDKREVKVAQLAGSVAEMSAYHHGEQALMMTIVNLAQNFVGSNNINLLQPIGQFGTRLHGGKDAASPRYIFTMLSTLARLLFPAVDDNLLKFLYDDNQRVEPEWYIPIIPMVLINGAEGIGTGWACKLPNYDAREIVNNVRRMLDGLDPHPMLPNYKNFKGTIQELGQNQYAVSGEIFVVDRNTVEITELPVRTWTQVYKEQVLEPMLNGTDKTPALISDYKEYHTDTTVKFVVKMTEEKLAQAEAAGLHKVFKLQTTLTCNSMVLFDHMGCLKKYETVQDILKEFFDLRLSYYGLRKEWLVGMLGAESTKLNNQARFILEKIQGKITIENRSKKDLIQMLVQRGYESDPVKAWKEAQEKAAEEDETQNQHDDSSSDSGTPSGPDFNYILNMSLWSLTKEKVEELIKQRDAKGREVNDLKRKSPSDLWKEDLAAFVEELDKVESQERED
modifications: catalytic tyrosine (Tyr821) joined to the 5′-phosphate of the cleaved G-segment DNA by a phosphotyrosyl linkage
notes: Not seen in 5ZEN chain A: 445-451, 597-602, 616-624, 703-706, 1112-1134; the His tag is surmised from the Ni-NTA step; also called hTop2^core; Top2 cleavage complex; source: E. coli BL21 (DE3) Star-pLysS, purified (Ni-NTA, heparin, Superdex 200)
binding result [2]: binds

B3: 20-bp G-segment duplex, 5-iododeoxyuridine labeled (DNAI) (dsDNA)
DNA 1: AGCCGAGCUGCAGCUCGGCU
DNA 2: AGCCGAGCUGCAGCUCGGCU
modifications: 5-iodo-2'-deoxyuridine replaces all thymidines (positions 9, 15, 20 of each strand); U denotes iododeoxyuridine, DNA backbone
binding result [3]: binds
